Data taken from patent publication US6274553A, “Method for stabilizing peptides and freeze-dried medicinal compositions containing peptides obtained by using the method” (Japan Energy Corporation, priority 1997, dated 2001).

How the values were obtained:
[1] = Storage stability of lyophilized HV1C3 at 60° C., pH with tartaric acid (Experiment Example 3); format: physicochemical; settings: saccharose, mannitol
Experimental: Hirudin variant HV1C3, purified saccharose, and mannitol were dissolved in purified water to a final concentration of 6 mg/ml (0.86 mM), 1.6 mg/ml (4.7 mM), and 10 mg/ml (55 mM), respectively. The resulting solution was divided into four equal portions. Three of these portions were adjusted to pHs 5.0, 5.5, and 6.0 using 30 mM tartaric acid. The peptide solutions for which the pH was thus adjusted and the peptide solution without pH adjustment were filtered through a 0.22 μm membrane filter. The filtrates were filled into 6 ml vials in the amount of 1 ml for each vial. 50 such vials were prepared for each pH of the solution, 200 vials in total. All these 200 vials were lyophilized.
(§1) The lyophilized samples were stored in an incubator at 60° C. and removed from the incubator after 1, 2, 3, 4, 5, 6, 7, and 8 weeks, respectively. 1 ml of purified water was added to each vial removed. Solutions further diluted 50-fold were used to measure the amount (percentage) of the hirudin variant HV1C3 remaining in the lyophilized sample in the same manner as in Experiment Example 1.

[2] = Storage stability of lyophilized HV1C3 at 60° C., pH adjusting agents (Experiment Example 2); format: physicochemical; settings: saccharose, mannitol
Experimental: Hirudin variant HV1C3, purified saccharose, and mannitol were dissolved in purified water to a final concentration of 6 mg/ml (0.86 mM), 1.6 mg/ml (4.7 mM), and 10 mg/ml (55 mM), respectively. The resulting solution was divided into five equal portions. Four of these portions were adjusted to pH 5.5 with the addition of 30 mM of acetic acid, tartaric acid, citric acid, or phosphoric acid. The peptide solutions for which the pH was thus adjusted and the peptide solution without pH adjustment were filtered through a 0.22 μm membrane filter. The filtrates were filled into 6 ml vials in the amount of 1 ml for each vial. 50 such vials were prepared for each pH of the solution, 250 vials in total. All these 250 vials were lyophilized.
as §1

B1: hirudin variant HV1C3: Hirudin variant having the amino acid sequence shown by Sequence No. 1 (JP Laid-open No. 173798/1992) (protein)
chain: VVYTDCTESGQNLCLCEGSNVCGQGNKCILGSDGEKNQCVTGEGTPKPQSHNQGDFEPIPEDAYDE
Remaining peptide (%) 1 wk ([1]; pH 5.0, 30 mM tartaric acid): 97.6% | Remaining peptide (%) 2 wks ([1]; pH 5.0, 30 mM tartaric acid): 96.1% | Remaining peptide (%) 3 wks ([1]; pH 5.0, 30 mM tartaric acid): 93.2% | Remaining peptide (%) 4 wks ([1]; pH 5.0, 30 mM tartaric acid): 91.8% | Remaining peptide (%) 5 wks ([1]; pH 5.0, 30 mM tartaric acid): 91.7% | Remaining peptide (%) 6 wks ([1]; pH 5.0, 30 mM tartaric acid): 89.9% | Remaining peptide (%) 7 wks ([1]; pH 5.0, 30 mM tartaric acid): 69.1% | Remaining peptide (%) 8 wks ([1]; pH 5.0, 30 mM tartaric acid): 86.6% | Remaining peptide (%) 1 wk ([1]; pH 5.5, 30 mM tartaric acid): 98.4% | Remaining peptide (%) 2 wks ([1]; pH 5.5, 30 mM tartaric acid): 97.6% | Remaining peptide (%) 3 wks ([1]; pH 5.5, 30 mM tartaric acid): 95.9% | Remaining peptide (%) 4 wks ([1]; pH 5.5, 30 mM tartaric acid): 95.2% | Remaining peptide (%) 5 wks ([1]; pH 5.5, 30 mM tartaric acid): 92.4% | Remaining peptide (%) 6 wks ([1]; pH 5.5, 30 mM tartaric acid): 92.2% | Remaining peptide (%) 7 wks ([1]; pH 5.5, 30 mM tartaric acid): 91.9% | Remaining peptide (%) 8 wks ([1]; pH 5.5, 30 mM tartaric acid): 90.6% | Remaining peptide (%) 1 wk ([1]; pH 6.0, 30 mM tartaric acid): 98.4% | Remaining peptide (%) 2 wks ([1]; pH 6.0, 30 mM tartaric acid): 97.6% | Remaining peptide (%) 3 wks ([1]; pH 6.0, 30 mM tartaric acid): 96.6% | Remaining peptide (%) 4 wks ([1]; pH 6.0, 30 mM tartaric acid): 96.1% | Remaining peptide (%) 5 wks ([1]; pH 6.0, 30 mM tartaric acid): 94.6% | Remaining peptide (%) 6 wks ([1]; pH 6.0, 30 mM tartaric acid): 93.6% | Remaining peptide (%) 7 wks ([1]; pH 6.0, 30 mM tartaric acid): 91.8% | Remaining peptide (%) 8 wks ([1]; pH 6.0, 30 mM tartaric acid): 92.2% | Remaining peptide (%) 1 wk ([1]; without pH adjustment): 96.9% | Remaining peptide (%) 2 wks ([1]; without pH adjustment): 94.2% | Remaining peptide (%) 3 wks ([1]; without pH adjustment): 92.3% | Remaining peptide (%) 4 wks ([1]; without pH adjustment): 90.9% | Remaining peptide (%) 5 wks ([1]; without pH adjustment): 89.9% | Remaining peptide (%) 6 wks ([1]; without pH adjustment): 88.2% | Remaining peptide (%) 7 wks ([1]; without pH adjustment): 87.2% | Remaining peptide (%) 8 wks ([1]; without pH adjustment): 86.1% | Remaining peptide (%) 1 wk ([2]; pH 5.5, acetic acid 30 mM): 98.3% | Remaining peptide (%) 2 wks ([2]; pH 5.5, acetic acid 30 mM): 95.6% | Remaining peptide (%) 3 wks ([2]; pH 5.5, acetic acid 30 mM): 94.2% | Remaining peptide (%) 4 wks ([2]; pH 5.5, acetic acid 30 mM): 93.3% | Remaining peptide (%) 5 wks ([2]; pH 5.5, acetic acid 30 mM): 92.0% | Remaining peptide (%) 6 wks ([2]; pH 5.5, acetic acid 30 mM): 91.9% | Remaining peptide (%) 7 wks ([2]; pH 5.5, acetic acid 30 mM): 91.4% | Remaining peptide (%) 8 wks ([2]; pH 5.5, acetic acid 30 mM): 90.6% | Remaining peptide (%) 1 wk ([2]; pH 5.5, citric acid 30 mM): 97.4% | Remaining peptide (%) 2 wks ([2]; pH 5.5, citric acid 30 mM): 95.8% | Remaining peptide (%) 3 wks ([2]; pH 5.5, citric acid 30 mM): 94.4% | Remaining peptide (%) 4 wks ([2]; pH 5.5, citric acid 30 mM): 93.3% | Remaining peptide (%) 5 wks ([2]; pH 5.5, citric acid 30 mM): 92.4% | Remaining peptide (%) 6 wks ([2]; pH 5.5, citric acid 30 mM): 91.6% | Remaining peptide (%) 7 wks ([2]; pH 5.5, citric acid 30 mM): 90.8% | Remaining peptide (%) 8 wks ([2]; pH 5.5, citric acid 30 mM): 89.8% | Remaining peptide (%) 1 wk ([2]; pH 5.5, phosphoric acid 30 mM): 77.9% | Remaining peptide (%) 2 wks ([2]; pH 5.5, phosphoric acid 30 mM): 66.6% | Remaining peptide (%) 3 wks ([2]; pH 5.5, phosphoric acid 30 mM): 61.4% | Remaining peptide (%) 4 wks ([2]; pH 5.5, phosphoric acid 30 mM): 58.1% | Remaining peptide (%) 5 wks ([2]; pH 5.5, phosphoric acid 30 mM): 57.3% | Remaining peptide (%) 6 wks ([2]; pH 5.5, phosphoric acid 30 mM): 57.6% | Remaining peptide (%) 1 wk ([2]; pH 5.5, tartaric acid 30 mM): 98.4% | Remaining peptide (%) 2 wks ([2]; pH 5.5, tartaric acid 30 mM): 97.6% | Remaining peptide (%) 3 wks ([2]; pH 5.5, tartaric acid 30 mM): 95.9% | Remaining peptide (%) 4 wks ([2]; pH 5.5, tartaric acid 30 mM): 95.2% | Remaining peptide (%) 5 wks ([2]; pH 5.5, tartaric acid 30 mM): 92.4% | Remaining peptide (%) 6 wks ([2]; pH 5.5, tartaric acid 30 mM): 92.2% | Remaining peptide (%) 7 wks ([2]; pH 5.5, tartaric acid 30 mM): 91.9% | Remaining peptide (%) 8 wks ([2]; pH 5.5, tartaric acid 30 mM): 90.6% | Remaining peptide (%) 1 wk ([2]; without pH adjustment): 96.9% | Remaining peptide (%) 2 wks ([2]; without pH adjustment): 94.2% | Remaining peptide (%) 3 wks ([2]; without pH adjustment): 92.3% | Remaining peptide (%) 4 wks ([2]; without pH adjustment): 90.9% | Remaining peptide (%) 5 wks ([2]; without pH adjustment): 89.9% | Remaining peptide (%) 6 wks ([2]; without pH adjustment): 88.2% | Remaining peptide (%) 7 wks ([2]; without pH adjustment): 87.2% | Remaining peptide (%) 8 wks ([2]; without pH adjustment): 86.1%
